Source: US7211424B1, “Mammalian Subtilisin/kexin isozyme SKI-1: a proprotein convertase with a unique cleavage specificity” (Institut de Recherches Cliniques de Montreal, priority 1999, dated 2007)

T1: BTMD-SKI-1 (Homo sapiens, UniProt Q14703)
T1 sequence (Q14703 187-997 limits assumed): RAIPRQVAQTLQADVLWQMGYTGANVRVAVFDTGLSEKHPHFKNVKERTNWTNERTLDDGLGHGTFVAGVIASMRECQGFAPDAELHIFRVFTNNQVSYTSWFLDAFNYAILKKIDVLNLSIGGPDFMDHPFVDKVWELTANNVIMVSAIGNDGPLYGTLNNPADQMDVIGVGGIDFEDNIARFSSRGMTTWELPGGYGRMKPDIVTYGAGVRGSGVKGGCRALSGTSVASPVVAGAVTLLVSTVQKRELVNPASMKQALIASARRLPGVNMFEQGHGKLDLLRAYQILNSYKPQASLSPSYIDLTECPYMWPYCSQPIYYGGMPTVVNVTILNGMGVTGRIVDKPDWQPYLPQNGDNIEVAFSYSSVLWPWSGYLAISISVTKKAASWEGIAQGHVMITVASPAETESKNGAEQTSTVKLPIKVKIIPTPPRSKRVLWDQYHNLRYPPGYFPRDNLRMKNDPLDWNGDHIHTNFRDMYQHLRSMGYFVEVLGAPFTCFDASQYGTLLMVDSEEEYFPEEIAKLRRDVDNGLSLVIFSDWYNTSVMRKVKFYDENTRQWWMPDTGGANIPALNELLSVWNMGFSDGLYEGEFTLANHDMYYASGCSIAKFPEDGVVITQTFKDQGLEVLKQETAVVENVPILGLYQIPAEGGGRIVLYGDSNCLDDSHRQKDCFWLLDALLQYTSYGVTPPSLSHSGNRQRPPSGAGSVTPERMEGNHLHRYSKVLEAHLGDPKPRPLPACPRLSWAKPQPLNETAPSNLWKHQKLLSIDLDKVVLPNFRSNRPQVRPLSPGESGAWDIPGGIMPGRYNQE
T1 sequence (Q14703 17-137 partner limits assumed): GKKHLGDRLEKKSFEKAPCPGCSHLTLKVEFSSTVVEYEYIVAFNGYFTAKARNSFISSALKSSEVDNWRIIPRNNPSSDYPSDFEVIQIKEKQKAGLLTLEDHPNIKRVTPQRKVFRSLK

T2: SKI-1 (Homo sapiens, UniProt Q14703)
T2 sequence (Q14703 187-998 limits assumed): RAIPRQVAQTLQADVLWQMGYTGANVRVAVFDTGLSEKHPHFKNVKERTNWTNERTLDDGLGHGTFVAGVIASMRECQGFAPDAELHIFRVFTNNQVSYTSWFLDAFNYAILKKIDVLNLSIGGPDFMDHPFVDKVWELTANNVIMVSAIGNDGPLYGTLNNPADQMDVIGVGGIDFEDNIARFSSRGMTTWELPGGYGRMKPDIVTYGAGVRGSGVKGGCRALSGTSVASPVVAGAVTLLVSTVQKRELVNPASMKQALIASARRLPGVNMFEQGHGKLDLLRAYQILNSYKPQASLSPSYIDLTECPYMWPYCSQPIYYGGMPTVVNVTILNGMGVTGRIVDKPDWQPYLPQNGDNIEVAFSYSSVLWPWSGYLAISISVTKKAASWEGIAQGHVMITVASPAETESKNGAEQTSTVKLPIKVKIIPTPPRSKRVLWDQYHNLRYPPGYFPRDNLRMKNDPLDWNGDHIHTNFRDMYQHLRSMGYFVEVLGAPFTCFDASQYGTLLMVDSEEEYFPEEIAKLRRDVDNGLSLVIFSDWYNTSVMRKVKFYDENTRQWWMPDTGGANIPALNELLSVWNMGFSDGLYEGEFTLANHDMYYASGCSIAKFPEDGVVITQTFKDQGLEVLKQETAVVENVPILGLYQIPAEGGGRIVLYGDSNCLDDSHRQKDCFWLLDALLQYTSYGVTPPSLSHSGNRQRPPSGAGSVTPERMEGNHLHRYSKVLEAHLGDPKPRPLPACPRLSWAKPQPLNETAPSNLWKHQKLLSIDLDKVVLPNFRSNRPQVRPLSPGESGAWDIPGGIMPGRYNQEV

T3: SKI-1 protease (Homo sapiens, UniProt Q14703)
T3 construct: endogenous in cells; the enzyme itself is not transfected
T3 sequence (Q14703 187-1052): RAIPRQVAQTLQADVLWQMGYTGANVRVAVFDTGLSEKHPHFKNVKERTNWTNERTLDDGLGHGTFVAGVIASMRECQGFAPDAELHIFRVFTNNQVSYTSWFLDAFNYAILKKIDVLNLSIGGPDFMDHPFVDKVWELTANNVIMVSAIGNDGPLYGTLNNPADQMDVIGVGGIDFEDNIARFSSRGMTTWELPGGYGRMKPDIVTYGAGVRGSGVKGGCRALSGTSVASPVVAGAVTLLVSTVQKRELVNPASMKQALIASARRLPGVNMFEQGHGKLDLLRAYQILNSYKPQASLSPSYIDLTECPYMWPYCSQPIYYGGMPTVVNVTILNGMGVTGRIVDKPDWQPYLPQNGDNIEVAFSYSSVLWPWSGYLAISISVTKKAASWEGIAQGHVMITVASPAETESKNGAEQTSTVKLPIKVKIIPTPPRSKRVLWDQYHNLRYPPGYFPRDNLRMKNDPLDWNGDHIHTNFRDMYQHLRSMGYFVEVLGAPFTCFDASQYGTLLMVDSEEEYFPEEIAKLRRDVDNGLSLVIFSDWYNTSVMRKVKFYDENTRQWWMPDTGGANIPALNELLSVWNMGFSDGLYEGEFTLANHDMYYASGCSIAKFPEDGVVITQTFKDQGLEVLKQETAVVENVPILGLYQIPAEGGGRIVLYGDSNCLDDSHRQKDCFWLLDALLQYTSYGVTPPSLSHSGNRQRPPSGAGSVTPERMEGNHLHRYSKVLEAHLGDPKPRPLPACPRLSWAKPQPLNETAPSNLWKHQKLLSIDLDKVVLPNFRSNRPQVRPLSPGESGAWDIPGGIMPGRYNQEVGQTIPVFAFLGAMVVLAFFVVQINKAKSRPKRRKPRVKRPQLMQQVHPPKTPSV

B1: ProSKI-1: the 188 amino acids that make up the signal peptide and the prosegment of SKI-1, expressed in HK293 cells (protein)
chain: GKKHLGDRLEKKSFEKAPCPGCSHLTLKVEFSSTVVEYEYIVAFNGYFTAKARNSFISSALKSSEVDNWRIIPRNNPSSDYPSDFEVIQIKEKQKAGLLTLEDHPNIKRVTPQRKVFRSLKYAESDPTVPCNETRWSQKWQSSRPLRRASLSLGSGFWHATGRHSSRRLLRA

Experiments:
[1] = biological target: T1, BTMD-SKI-1; test: biochemical; assay type: biochemical
[2] = biological target: T4, shed-hSKI-1 (Homo sapiens, UniProt Q14703); test: Hydrolysis of quenched fluorogenic substrates by shed-hSKI-1; assay type: biochemical; settings: in the presence of 10 mM EDTA
T4 construct: SKI-1 is further processed to remove the transmembrane domain that keeps it integrated in the ER membrane, which generates a SKI-1 soluble form; made in house; host or cells: HK293 cells stably transfected with full-length hSKI-1 in pcDNA3; shed enzyme in the medium
Description: For digestions, each peptide was typically reacted at 37° C. with 10 μl of the concentrated enzyme preparation in a buffer consisting of 50 mM HEPES (N-2-Hydroxyethyl piperazine-N′-2 EthaneSulfonic acid) (ICN Biomedicals Inc), 50 mM MES (2-[N-Morpholino] EthaneSulfonic acid) (Sigma Chem Co.), and 3 mM Ca^2+-acetate (pH 6.5). The digestion products were separated by RP-HPLC on a Beckman 5 μm Ultrasphere C18 column (0.2×25 cm) and eluted with a 1%/min linear gradient of aqueous 0.1% TFA/CH3CN ([…]) at a flow rate of 1 ml/min. The collected peptides were characterized by mass spectrometry and amino acid composition, which was also used to quantitate the amount of various substrates and products. The digestions of the quenched fluorogenic peptides were analyzed by RP-HPLC using a dual UV (210 nm) and fluorescence (excitation and emission wavelengths of 320 and 420 nm, respectively) detector (Rainin).
Km(app), Vmax(app) and Ki(app) determinations—Following digestion reactions with increasing substrate concentrations, the products were separated by RP-HPLC. The rate of substrate hydrolysis was obtained from the integrated peak areas of the chromatograms. […] For the two quenched peptides, kinetic parameters were determined as described (17).

[3] = biological target: T2, SKI-1; assay type: biochemical; settings: overnight 37° C., pH 6.0; PMSF 0.5 mM + pAPMSF 50 μM, o-phenanthroline 5 mM, EDTA 10 mM
[4] = biological target: T3, SKI-1 protease; test: SREBP-1 processing in stable HK293 cell lines overexpressing ProSKI-1 and SREBP-1 (immunoblot); assay type: cell-based
Description: Cell Culture: HK293 cells were maintained as monolayers in Dulbecco's modified Eagle's medium containing 100 units/ml penicillin and 100 μg/ml streptomycin sulfate (medium A) supplemented with 10% fetal calf serum. 24 hours before RNA and protein extractions medium A was supplemented with 5% lipoprotein deficient serum, 50 μM mevalonate (Sigma), 50 μM compactin (Sigma) and with no sterols or 1 μg/ml of 25-hydroxy-cholesterol and 10 μg/ml of cholesterol. 4 hours before protein extraction 25 μg/ml N-acetyl-leucinyl—leucinyl norleucinal was added. Total RNA was isolated with Trizol (Gibco BRL) reagent according to the instructions of the manufacturer. In order to extract proteins cells were washed and collected in PBS with protease inhibitors ( ). After addition of buffer A (Triton×100 1%,50 mM tris maleate, 2 mM CaCl2, inhibitor coctail ( ), and ALLN) cells were mixed with pipette and allowed to swell on ice for 20 minutes Then the solution was centrifuged for 5 minutes at 15, 000 rpm and supernatants representing membrane proteins were collected and stored until analyzed at −70° C. […]
Transfections: HK293 cells were plated at a density of 5×10^5 /60 mm dish in medium A with 10% fetal calf serum and were cultured until they were 40–60% confluent. […] Colonies were isolated and formed stable cell lines were analyzed by immunoblotting with ProSKI-1 and SREBP-1 antibodies. […]

[5] = system: SREBP mediated transcription; test: SREBP target gene mRNA in HK293 cells overexpressing ProSKI-1 and SREBP-1 (Northern blot); assay type: cell-based, human
Description: Cell Culture: […] Total RNA was isolated with Trizol (Gibco BRL) reagent according to the instructions of the manufacturer. In order to extract proteins cells were washed and collected in PBS with protease inhibitors ( ). […] Samples were shaken at 4 C for 1 hour and centrifuged and the supernatant was frozen in aliquots at -70° C. Transfections: […] On day two medium containing appropriate selection agents (800 μg/ml Geneticin for pcDNA3neo, […] Zeocin for pcDNA3zeo) were added. The medium was changed every two days until defined colonies were evident. Colonies were isolated and formed stable cell lines were analyzed by immunoblotting with ProSKI-1 and SREBP-1 antibodies. […] After transfer filters were crosslinked by UV irradiation in a Stratalinker (Stratagene). Filters were prehydridized at 42° C. for 1 hour and hybridized with random labeled ^32P cDNA probes for 16-20 hours. UltrahybTM buffer (Ambion) was used. After hybridization filters were washed and exposed to film for indicated time and bands were quantified by densitometry. Primer pairs were used to clone cDNA probes: HMG CoA reductase [[NT] ID NO: 21)] [[NT] ID NO: 22)], farnesyl diphosphate [[NT] ID NO: 23)], [[NT] ID NO: 24)], Fatty acid synthase [[NT] ID NO: 25)], [[NT] ID NO: 26)], Acetyl CoA carboxylase [[NT] ID NO: 27)], [5' [NT]3 (SEQ ID NO: 28)], SREBP-1 [[NT] ID NO: 29)], [[NT] ID NO: 30)]. […]

[6] = biological target: furin (Homo sapiens, UniProt P09958); test: Specificity of ProSKI-1: processing of neurotrophin-3 (NT-3), a substrate not processed by SKI-1; assay type: cell-based
furin, sequence (P09958 108-794, species assumed): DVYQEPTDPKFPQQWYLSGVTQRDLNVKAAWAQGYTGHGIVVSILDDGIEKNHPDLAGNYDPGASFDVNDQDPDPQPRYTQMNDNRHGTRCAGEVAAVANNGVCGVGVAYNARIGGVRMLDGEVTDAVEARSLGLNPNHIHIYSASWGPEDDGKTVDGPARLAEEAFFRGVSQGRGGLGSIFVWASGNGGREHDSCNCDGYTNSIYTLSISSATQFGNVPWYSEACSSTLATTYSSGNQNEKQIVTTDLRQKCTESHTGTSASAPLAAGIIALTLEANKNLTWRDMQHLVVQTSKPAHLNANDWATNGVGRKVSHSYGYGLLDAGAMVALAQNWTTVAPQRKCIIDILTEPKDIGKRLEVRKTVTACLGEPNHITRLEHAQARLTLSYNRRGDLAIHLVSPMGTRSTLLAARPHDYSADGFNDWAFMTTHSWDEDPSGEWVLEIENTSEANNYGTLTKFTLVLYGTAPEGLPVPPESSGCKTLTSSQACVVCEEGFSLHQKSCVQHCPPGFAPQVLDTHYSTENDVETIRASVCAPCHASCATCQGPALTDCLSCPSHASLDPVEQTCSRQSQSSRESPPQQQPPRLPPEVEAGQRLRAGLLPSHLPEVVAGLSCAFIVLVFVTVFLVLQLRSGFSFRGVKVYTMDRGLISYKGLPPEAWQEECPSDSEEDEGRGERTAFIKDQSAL

level and furin-derived processing of NT-3 [6] | Molecule | Hydrolysis of SREBP-2 peptide (% of control) [1] | cleavage of quenched fluorogenic peptide at the RSLK↓ site [2] | inhibition of the processing of proBDNF by SKI-1 [3] | processing of cytoplasmic proSREBP-1 into intermediate form(s) ([4]; HK293 cell lines overexpressing SREBP-1 together with ProSKI-1) | nuclear SREBP-1 ([4]; HK293 nuclear extracts, absence of sterols) | mRNA levels of LDL-receptor, HMG-CoA reductase, farnesyl diphosphate and fatty acid synthase ([5]; HK293 cells, with and without lipids, early passages of previously frozen cell lines) | target gene mRNA levels ([5]; same clones kept in culture for further passages)
– | O=C(O)CN(CCN(CC(=O)O)CC(=O)O)CC(=O)O [EDTA] | 0 % of control | completely abolished | effectively inhibit | – | – | – | –
unaffected | B1 | – | – | – | formation of the intermediate form(s) of SREBP-1 was abolished | Only minute amounts of nuclear SREBPs were detected | greatly reduced | normal or even higher than in control cells
